Laboratory results as given in article PMC9573856 (2022).

Molecular target: T1, 3 × FLAG-aPKC (atypical protein kinase C subtype iota, PKCι), wild type, full length (Homo sapiens (Human), UniProt P41743)
T1 chain: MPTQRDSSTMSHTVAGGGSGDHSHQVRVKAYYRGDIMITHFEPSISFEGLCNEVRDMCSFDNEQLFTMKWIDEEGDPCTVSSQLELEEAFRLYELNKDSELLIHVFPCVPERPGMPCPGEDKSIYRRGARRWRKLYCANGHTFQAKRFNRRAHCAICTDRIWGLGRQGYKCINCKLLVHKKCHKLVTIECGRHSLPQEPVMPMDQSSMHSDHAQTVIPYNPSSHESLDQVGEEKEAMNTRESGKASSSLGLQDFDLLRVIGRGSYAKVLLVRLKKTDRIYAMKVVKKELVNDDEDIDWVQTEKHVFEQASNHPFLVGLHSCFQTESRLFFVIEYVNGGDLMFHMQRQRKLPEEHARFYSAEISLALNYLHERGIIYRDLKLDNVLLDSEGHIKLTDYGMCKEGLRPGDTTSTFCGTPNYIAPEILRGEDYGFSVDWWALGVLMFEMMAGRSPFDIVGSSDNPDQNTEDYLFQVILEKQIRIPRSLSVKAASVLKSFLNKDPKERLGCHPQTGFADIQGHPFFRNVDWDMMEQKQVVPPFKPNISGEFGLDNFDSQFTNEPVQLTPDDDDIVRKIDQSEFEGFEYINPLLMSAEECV
Experiment: co-expression, FLAG co-purification, SEC and glycerol gradient

B1: PAR6 (PAR6α), untagged, full length (protein)
chain: MARPQRTPARSPDSIVEVKSKFDAEFRRFALPRASVSGFQEFSRLLRAVHQIPGLDVLLGYTDAHGDLLPLTNDDSLHRALASGPPPLRLLVQKREADSSGLAFASNSLQRRKKGLLLRPVAPLRTRPPLLISLPQDFRQVSSVIDVDLLPETHRRVRLHKHGSDRPLGFYIRDGMSVRVAPQGLERVPGIFISRLVRGGLAESTGLLAVSDEILEVNGIEVAGKTLDQVTDMMVANSHNLIVTVKPANQRNNVVRGASGRLTGPPSAGPGPAEPDSDDDSSDLVIENRQPPSSNGLSQGPPCWDLHPGCRHPGTRSSLPSLDDQEQASSGWGSRIRGDGSGFSL
binding result: binds
